Tested on: A. ceylanicum
Test: Hamster vaccine trial Ham V-IV with Quil A, oral challenge with 100 A. ceylanicum L3
Assay type: in vivo, Syrian hamster
Details: for Adult Hookworms, Mean: 10 hamsters per group, Quil A control 48.9; for Spleen weights, Median: Quil A control 0.45; for Spleen weights, Mean: Quil A control 0.47; for Adult Hookworms, Median: Quil A control 53.0; for Percent reduction (EPG) relative to Quil A / Percentage Hb Increase Relative to control (QuilA) / Percentage Reduction (adult hookworms) Relative to Quil A: hamster, in vivo; for EPG Mean ± SD: hookworm eggs per gram, two cages per group; for Body Weight % Reduction, Median / Body Weight % Reduction, Mean / Hb % change, Mean / Hb % change, Median: necropsy relative to time of infection; for Body Weight % Reduction, Median: Quil A control 7.8; for Body Weight % Reduction, Mean: Quil A control 7.9; for Hb % change, Mean / Hb % change, Median: minus = decrease; for Hb % change, Mean: Quil A −29.7; for Hb % change, Median: Quil A −32.5
Experimental: Brief Outline of Study Sections: Purpose bred Syrian hamsters are randomized into eight groups. Seven groups will receive candidate vaccines: ASP-1, ASP-2, MTP, and Irradiated larvae. One group receives only the adjuvant (Quil A) as experimental control. Each animal's specific antibody response is evaluated by direct ELISA using serum taken prior to the infective challenge. […] Quantitative ova counts, used to evaluate worm burden, are made from fecal samples collected twice after larval challenge. Also, hemoglobin levels will be tested to detect anemia caused by the blood loss during adult hookworm infection. The final report will evaluate the data and provide conclusions regarding each vaccine's effectiveness both in terms of worm burden and blood loss.
Test and Control Identification: The antigens are ASP-1, ASP-2, and MTP. The antigen-adjuvant combinations will be ASP-1+Quil A, ASP-2+Quil A, MTP+Quil A, ASP-1+ASP-2+Quil A, ASP-2+MTP+Quil A and ASP-1+MTP+Quil A. One group, which receives irradiated L3 serve as the positive control. The negative control group will receive only Quil A. Details about the antigen and the adjuvants will be included in the study records when they become available.
The test articles are diluted to provide a dose of 0.025 mg of antigen in 200 ul of antigen-adjuvant mixture per animal per injection. All injections will be performed intramuscularly (i.m). The prescribed volume dose information is recorded by Dr. Ghosh. Fresh preparation of antigens will be made the day of injection.
Administration of Test and Control Articles: The vaccines and adjuvant are administered intramuscularly (IM) three (3) times beginning when the hamsters are 28±2 days old. The vaccines are boosted at 21 days (3 weeks) intervals.
Challenge Infection: Ancylostoma ceylanicum larvae are cultured from the eggs collected in the feces of infected hamsters by qualified technicians in the Dr. Hotez lab. All hookworms in the infective challenge are approximately equal age (10±5 days). The species identity of the infective larva dose is validated, using PCR DNA amplification and specific oligonucleotide primers. All hamsters are infected by orally with the same dose of 100+/−10 3rd stage larvae of A. celyanicumfs. Larval challenge occurs on the same day for all hamsters (at age 82±2 days). Clinical Observations: The hamsters are observed daily and are weighed at least every 7 days post-challenge. Hamsters that develop signs of moderate to severe anemia, or develop a loss of body weight greater than 15% are observed more frequently. Prior to larvae infection and at least one time every 7-10 days, blood samples are collected from all hamsters. Blood withdrawal should be approximately equal in amount from all hamsters and at this time, the stool will be checked for blood.
A pre-vaccination blood sample will be examined for Hemoglobin; a sample of serum will be frozen. A hemoglobin test is performed 6-10 days and 12-18 days post-challenge. Samples of serum will be collected from each hamster; pre-immune, after 2 boosts, and after larval challenge. These samples will be labeled with unique identifiers (nature of the specimen, study-hamster number and collection date) and frozen for possible future analysis.
Quantitative Egg Counts (QEC): One week following parasite dosing, fecal examination for ova begins and will be repeated once a week until the study is terminated. The ova count method will be performed according to the SOP, which is a modification of the McMaster technique (Veterinary Clinical Pathology, 6th ed., 1994, page 9-10). The test will be performed the same way each time in order to quantitate the ova count. Fecal specimens from the hamsters will be identified by the hamster study number and the unique hamster identification number. The ova are counted in a McMaster chamber under a binocular microscope and recorded. […]

B1: Ay-ASP-2: A. ceylanicum secreted protein 2, SEQ ID NO: 58; Pichia pastoris expressed (protein, listed as Ancylostoma ceylanicum)
chain: VLVPLLVLLAVSVDANSVRCGNNGMTDEARQKFLDMHNGYRSQVAKGQAKDALSGNAPKAAKMKKMVYDCGVESTAMQNAKKCVFTHSHMKGLGENIWMTTAREMDKVKSAEQASQGWFSELAEYGVGPENKLTMQLWNRPNTQIGHYTQMVWQDTYKLGCYVEWCSSMTYGVCQYSPQGNMMNSIIYEKGNPCTQDSDCGSNARCTADKALCIVHG
Adult Hookworms, Mean: 33.2
Spleen weights, Median: 0.47 gr
Spleen weights, Mean: 0.44 gr
Adult Hookworms, Median: 39.5
Percent reduction (EPG) relative to Quil A: 47.2%
Percentage Hb Increase Relative to control (QuilA): 55.2%
Percentage Reduction (adult hookworms) Relative to Quil A: 32.1%
EPG Mean ± SD: 1175.0 ± 176.7
Body Weight % Reduction, Median: 4.9%
Body Weight % Reduction, Mean: 4.2%
Hb % change, Mean: −9.2%
Hb % change, Median: −13.3%

B2: Ay-ASP-1: A. ceylanicum secreted protein 1, SEQ ID NO: 56; Pichia pastoris expressed (protein, listed as Ancylostoma ceylanicum)
chain: FSPVVVISVVLTVAFCDASPVKASFGCSNSGITDSDRQAFLDFHNNARRRVAQGVEDNKSGKLNPAKNMYKLDWDCEMEQKLQDAIQSCPGGFAGIQGVAQNIISWSGSGGFPNPSEKINSTLASWWGGAKNNGVASDNKYTGGGLYAFSNMVFSETTKLGCAYKVCGTKLTLSCYNGIGYMTGAPMWETGQACKAGADCTTFKNSGCEDGLCTKGADVPETNQQCPSNTGMTDSVRDTFLSLHNEFRSSVARGLEPDALGGNAPKASKMLKMVYDCEVEASAIRHGNKCVYQHSHGDERPGLGENIYKTSIVKFEKNKAAKQASQLWWNELKEFGVGPSNMLTDAWNRPNMQIGHYTQMAWESTYKLGCAVIFCNDFTFGVCQYGPGGNYMNHLIYTIGQPCSECEATATCSVTEGLCSAP
Adult Hookworms, Mean: 30.9
Spleen weights, Median: 0.48 (0.48) ± 0.10 gr
Spleen weights, Mean: 0.48 (0.48) ± 0.10 gr
Adult Hookworms, Median: 36.0
Percent reduction (EPG) relative to Quil A: 59.0%
Percentage Hb Increase Relative to control (QuilA): 32.7%
Percentage Reduction (adult hookworms) Relative to Quil A: 36.8%
EPG Mean ± SD: 912.5 ± 17.7
Body Weight % Reduction, Median: 4.4%
Body Weight % Reduction, Mean: 3.4%
Hb % change, Mean: −13.3%
Hb % change, Median: −20.0%

B3: Ay-MTP-1: A. ceylanicum astacin protease antigen, SEQ ID NO: 60 (protein, listed as Ancylostoma ceylanicum)
chain: MRVFLLVLLLAICASAGFFDTKLGEKIKKTLGKIKAALNGTLLMKIREKFIALREKIKAKLKLSPARKALLGEIMKHIIKIKKDKIQEKGDSIEEINSKSAIGELLYQGDIVLTNKQAQEIVDIEGDENDRGKRQAFRDRNYPRTLWSKGVYYYFHGNATPEVRSVFTKGARLWMKDTCIDFFESNSAPDRIRVFKEQGCWSYVGRIGGQQDLSLGKGCESVGTAAHEIGHAIGFYHTHSRHDRDNFITFNAQNVKPDWLDQFTKQTPATNENYGITYDYGSIMHYGANSASANGQPSMVPFDPKYVETLGSPIISFYELLMINKPYECTKNCDPNTSAQCKMGGFPHPRDCGRCICPSGYGGQLCDQKPSGCGSILQATAQYQNLHDKRGNEAAGQRPREDMDFCYYWITAPQGSRIEIKIADLSRGAAVDGCQYWGVEIKTHADQRLTGYRFCAPEDVGRTLVSNSNIVPIITYNFYATTVDIQYRIVGGNVGGPRPQPQPNSNCVDNEQCATLIRTKNFCQSRSFTESVKRGLCPKACGFCR
Adult Hookworms, Mean: 35.3
Spleen weights, Median: 0.45 gr
Spleen weights, Mean: 0.42 gr
Adult Hookworms, Median: 40.0
Percent reduction (EPG) relative to Quil A: 42.7%
Percentage Hb Increase Relative to control (QuilA): 59.9%
Percentage Reduction (adult hookworms) Relative to Quil A: 27.8%
EPG Mean ± SD: 1275.0 ± 777.8
Body Weight % Reduction, Median: 5.4%
Body Weight % Reduction, Mean: 4.0%
Hb % change, Mean: −3.5%
Hb % change, Median: −11.9%
